Test results: article PMC4005663 (Nucleic Acids Research, 2014)

B1: GST–MLV IN NTD–CCD(1–289) (domain or fragment)
chain: IENSSPYTSEHFHYTVTDIKDLTKLGAIYDKTKKYWVYQGKPVMPDQFTFELLDFLHQLTHLSFSKMKALLERSHSPYYMLNRDRTLKNITETCKACAQVNASKSAVKQGTRVRGHRPGTHWEIDFTEIKPGLYGYKYLLVFIDTFSGWIEAFPTKKETAKVVTKKLLEEIFPRFGMPQVLGTDNGPAFVSKVSQTVADLLGIDWKLHCAYRPQSSGQVERMNRTIKETLTKLTLATGSRDWVLLLPLALYRARNTPGPHGLTPYEILYGAPPPLVNFPDPDMTRVTNS
B2: GST–MLV IN CTD(290–408) (domain or fragment)
chain: PSLQAHLQALYLVQHEVWRPLAAAYQEQLDRPVVPHPYRVGDTVWVRRHQTKNLEPRWKGPYTVLLTTPTALKVDGIAAWIHAAHVKAADPGGGPSSRLTWRVQRSQNPLKIRLTREAP
notes: not shown: GST, N-terminal, kept

Biological target: T1, 6xHis–Brd4(1–720) (human, UniProt O60885 1-720)
T1 construct: not shown: 6xHis, N-terminal, kept
Experiment: pull-down
Settings: both partners purified

| Binder | Kd [nM] |
| --- | --- |
| B1 | > 2000 |
| B2 | 61.2 ± 4.05 |
